Measurements from patent US20240301062A1 (BEIGENE SWITZERLAND, published 2024).
Numbering of substitutions follows the chain as printed. In names and notes the source's numbering stands. Where two headings read alike, the source gives them in different places.

Columns and labels:
human claudin 6 (CLDN6) [1] = target: T1, human claudin 6 (CLDN6) (human, UniProt P56747 1-220); test: FACS, HEK293-hCLDN6 cells
T1 construct: also called human CLDN6; hCLDN6
T1 sequence: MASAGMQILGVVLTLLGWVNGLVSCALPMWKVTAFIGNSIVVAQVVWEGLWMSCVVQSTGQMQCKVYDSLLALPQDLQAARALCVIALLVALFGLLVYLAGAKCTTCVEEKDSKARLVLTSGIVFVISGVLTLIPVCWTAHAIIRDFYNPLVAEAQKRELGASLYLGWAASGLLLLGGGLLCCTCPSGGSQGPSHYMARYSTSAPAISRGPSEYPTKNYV

mouse CLDN6 = target: T2, mouse CLDN6 (mouse, UniProt Q9Z262 1-219); test: flow cytometry on CHOK1/mouse CLDN6 cells, MFI(PE)
T2 construct: whole, on cells
T2 sequence (looked up): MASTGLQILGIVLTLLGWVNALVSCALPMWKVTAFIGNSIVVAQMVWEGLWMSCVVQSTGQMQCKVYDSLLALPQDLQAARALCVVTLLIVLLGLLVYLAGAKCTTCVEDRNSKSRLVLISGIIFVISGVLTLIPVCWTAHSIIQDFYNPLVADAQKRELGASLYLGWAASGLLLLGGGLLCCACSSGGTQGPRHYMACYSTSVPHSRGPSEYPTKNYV

cyno CLDN6 [2] = target: T3, cyno CLDN6 (cyno); test: flow cytometry on CHOK1/cyno CLDN6 cells, MFI(PE)
T3 construct: whole, on cells; also called cynomolgus CLDN6

cyno CLDN6 [3] = target: T3, cyno CLDN6; test: FACS, HEK293T_cyno-CLDN6 cells
cyno CLDN6 [4] = target: T3, cyno CLDN6; test: FACS, HEK293T-cyno-CLDN6 cells
human claudin 6 (CLDN6) [5] = target: T1, human claudin 6 (CLDN6); test: flow cytometry on HEK293T/human CLDN6 cells, goat anti-human IgG secondary, MFI(PE)
Method: (§1) For affinity determination, CLDN6 over-expressing HEK293T cells and cancer cell line PA-1 which express high levels of human CLDN6 were used to evaluate the binding activity of BG87P related engineering variants. Live cells were seeded in 96-well plate, and were incubated with a series of dilutions of chBG87P and engineered variants thereof. Goat anti-human IgG was used as second antibody to detect antibody binding to the cell surface. EC50 values for dose-dependent binding to CLDN6 expressing cell lines were determined by fitting the dose-response data to the four-parameter logistic model with GraphPad Prism. Cell binding activity of 1st round of BG87P humanization variants against HEK293T/human CLDN6 were compared to chBG87P and shown in FIG. 1A.

human claudin 9 (CLDN9) = target: T4, human claudin 9 (CLDN9) (human, UniProt O95484 1-217); test: flow cytometry on HEK293T/human CLDN9 cells, MFI(PE)
T4 construct: also called human CLDN9
T4 sequence: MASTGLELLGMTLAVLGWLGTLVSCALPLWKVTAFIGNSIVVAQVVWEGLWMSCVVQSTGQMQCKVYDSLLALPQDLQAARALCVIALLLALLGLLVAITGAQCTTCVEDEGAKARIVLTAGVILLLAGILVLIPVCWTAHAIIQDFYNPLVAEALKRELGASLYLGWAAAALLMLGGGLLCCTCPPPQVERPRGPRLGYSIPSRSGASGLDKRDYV

human claudin 6 (CLDN6) [6] = target: T1, human claudin 6 (CLDN6); test: FACS, HEK293T-hCLDN6 cells
[7] = target: T5, human native CD3 on live cells (HuT78, Jurkat) (human, UniProt P07766 23-207; P09693 23-182; P04234 22-171); test: flow cytometry on live HuT78 cells, mouse anti-human IgG secondary, MFI
T5 construct: whole, on cells; also called human CD3
Method: (§2) For affinity determination, antibodies were captured by anti-human Fc surface, and used in the affinity-assay based on surface plasmon resonance (SPR) technology. The binding activity of humanized sp34 to bind native CD3 on live cells was evaluated using HuT78 cells in a FACS based assay. Live HuT78 cells were seeded in 96-well plate, and were incubated with a series of dilutions of chimeric or humanized sp34. Mouse anti-Human IgG was used as second antibody to detect antibody binding to the cell surface. EC50 values for dose-dependent binding to human native CD3 were determined by fitting the dose-response data to the four-parameter logistic model with GraphPad Prism.

[8] = target: T5, human native CD3 on live cells (HuT78, …); test: as above; remark: listed apart in the source
Method: as §2

CD3ε (SPR analyte) [9] = target: T6, CD3ε (SPR analyte) (UniProt P07766 23-126, limits assumed); test: SPR, scFv-Fc
[10] = target: T5, human native CD3 on live cells (HuT78, …); test: FACS, HuT78 cells, Test 1
Method: as §2

[11] = target: T5, human native CD3 on live cells (HuT78, …); test: FACS, HuT78 cells, Test 2
Method: as §2

[12] = target: T5, human native CD3 on live cells (HuT78, …); test: FACS, HuT78 cells
Method: as §2

CD3ε (SPR analyte) [13] = target: T6, CD3ε (SPR analyte); test: SPR
[14] = target: T5, human native CD3 on live cells (HuT78, …); test: flow cytometry on live HuT78 cells, mouse anti-human IgG secondary, MFI; remark: listed apart in the source
Method: as §2

CD3ε (SPR analyte) [15] = target: T6, CD3ε (SPR analyte); test: SPR, antibody captured by anti-human Fc
Method: as §2

[16] = target: T5, human native CD3 on live cells (HuT78, …); test: FACS, HuT78 cells; remark: listed apart in the source
Method: as §2

CD3ε (SPR analyte) [17] = target: T6, CD3ε (SPR analyte); test: SPR, antibody captured by anti-human Fc; remark: listed apart in the source
Method: as §2

human claudin 6 (CLDN6) [18] = target: T1, human claudin 6 (CLDN6); test: FACS, HEK293T/human CLDN6 cells
Method: as §1
Beginning with the chBG87P antibody and BG87P-Bz0, several additional amino acid changes in the CDR regions of both VH and VL were made to further improve the biophysical properties for therapeutics use in human. The considerations included removing post translational modifications (PTM), improved heat stability (Tm), while maintaining binding activities, the resulted variants are BG87P-m1 (VH SEQ ID NO: 31 and VL SEQ ID NO: 8), BG87P-m2 (VH SEQ ID NO: 32 and VL SEQ ID NO: 8), BG87P-m3 (VH SEQ ID NO: 33 and VL SEQ ID NO: 8), and BG87P-m4 (VH SEQ ID NO: 34 and VL SEQ ID NO: 8) and BG87P-m5 (VH SEQ ID NO: 35 and VL SEQ ID NO: 14), BG87P-m6 (VH SEQ ID NO: 36 and VL SEQ ID NO 14), BG87P-m7 (VH SEQ ID NO: 37 and VL SEQ ID NO: 14), and BG87P-m8 (VH SEQ ID NO: 38 and VL SEQ ID NO: 14). Cell binding activity of chBG87P and BG87P-Bz0 related PTM removal variants against HEK293T/human CLDN6 was compared with chBG87P and BG87-Bz0, respectively ([…]). Cell binding affinity (EC50) and Emax (MFI) was normalized to chBG87P for directly comparison and ranking (Table 7).

human claudin 6 (CLDN6) [19] = target: T1, human claudin 6 (CLDN6); test: FACS, PA-1 cells (endogenous CLDN6)
Method: as §1

T5 sequence (P07766 23-207, chain 1 of 3): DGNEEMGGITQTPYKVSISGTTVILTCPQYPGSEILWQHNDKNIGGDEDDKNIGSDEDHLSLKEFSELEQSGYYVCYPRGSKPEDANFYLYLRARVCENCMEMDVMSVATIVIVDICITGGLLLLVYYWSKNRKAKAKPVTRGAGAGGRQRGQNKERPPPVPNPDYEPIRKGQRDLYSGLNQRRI
T5 sequence (P09693 23-182, chain 2 of 3): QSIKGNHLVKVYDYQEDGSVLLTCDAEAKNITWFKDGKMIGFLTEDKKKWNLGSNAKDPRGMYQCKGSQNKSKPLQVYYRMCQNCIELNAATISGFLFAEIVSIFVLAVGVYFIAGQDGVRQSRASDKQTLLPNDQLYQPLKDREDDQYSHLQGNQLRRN
T5 sequence (P04234 22-171, chain 3 of 3): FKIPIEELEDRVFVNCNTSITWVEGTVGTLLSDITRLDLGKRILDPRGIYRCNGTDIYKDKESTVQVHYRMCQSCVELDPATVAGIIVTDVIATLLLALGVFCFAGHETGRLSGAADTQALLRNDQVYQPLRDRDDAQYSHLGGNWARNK
T6 sequence (P07766 23-126 limits assumed): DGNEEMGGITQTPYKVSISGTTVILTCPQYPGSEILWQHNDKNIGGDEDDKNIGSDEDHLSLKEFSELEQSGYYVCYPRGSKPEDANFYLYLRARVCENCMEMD

B1: BG87P-34 (antibody, V domains shown)
VH: EVQLQESGGGLVQPGGSLRLSCAASGYSFSDYHINWVRQAPGKGLEWVGYIYPGSGHTKYNEKFKGRFTISRDTSSNTAYLQMNSLRAEDTAVYYCARSGIYHYVSSYYFDHWGQGTLVTVSS
VL: DIQMTQSPSSLSASVGDRVTITCKASQDAGSAVAWYQQKPGKAPKLLIYWASTRHTGVPSRFSGSGSGTDFTLTISSLQPEDFATYYCQQYSSYTFGGGTKLEIK
notes: Framework-swapped final lead (IGHV3-23 / IGKV1-39); also called BG87-34
Human claudin 6 (CLDN6) [1]
  FACS-Ec50 ratio to BG87P: 1.17 ratio
Mouse CLDN6
  binding result: binds
Cyno CLDN6 [2]
  EC50 (read off the curve): ~9 nM
Cyno CLDN6 [3]
  EC50: 8.8 nM
Cyno CLDN6 [4]
  FACS Emax ratio to BG87P: 1 ratio
Human claudin 6 (CLDN6) [5]
  EC50 (read off the curve): ~10 nM
Human claudin 9 (CLDN9)
  binding result: no binding (tested: about 250 nM (log 2.4))
Human claudin 6 (CLDN6) [6]
  FACS Emax ratio to BG87P: 1.03 ratio

B2: humanized scFv BG562P (scFv-Fc) (Fc fusion)
scFv: EVQLVESGGGLVQPGGSLRLSCAASGFTFNTYAMNWVRQAPGKGLEWVARIRSKYNNYATYYADSVKDRFTISRDDAKNSLYLQMNSLRAEDTAVYYCVRHGNFGNSYVSWFAYWGQGTLVTVSSGGGGSGGGGSGGGGSEIVVTQSPATLSVSPGERATLSCRSSTGAVTTSNYANWVQQKPGQAPRGLIGGTNKRAPGIPARFSGSLSGDEATLTISSLQSEDFAVYYCALWYSNLWVFGGGTKVEIK
notes: BG561P with L4V in VL; not shown: human IgG1 Fc region, scFv fused to its N-terminus
[7]
  EC50 (read off the curve): ~0.3 µg/mL
[8]
  EC50 (read off the curve): ~0.1 µg/mL
CD3ε (SPR analyte) [9]
  Kd: 3.16 nM
  koff: 0.000367 s⁻¹
  kon: 116000 M⁻¹ s⁻¹
[10]
  EC50: 2.85 nM
[11]
  EC50: 2.85 nM

B3: humanized sp34 scFv BG561P (scFv-Fc) (Fc fusion)
scFv: B2 scFv with V144L
notes: scFv (VH-3xG4S-VK) fused to N-terminus of a human IgG1 Fc region; also called scFv-ized BG56P; not shown: human IgG1 Fc region, scFv fused to its N-terminus
[7]
  EC50 (read off the curve): ~0.5 µg/mL
[8]
  EC50 (read off the curve): ~0.3 µg/mL
[12]
  EC50: 4.35 nM
CD3ε (SPR analyte) [9]
  Kd: 4.98 nM
  koff: 0.00036 s⁻¹
  kon: 72200 M⁻¹ s⁻¹
[10]
  EC50: 2.46 nM
CD3ε (SPR analyte) [13]
  Kd: 9.08 nM
  koff: 0.000401 s⁻¹
  kon: 44200 M⁻¹ s⁻¹

B4: chimeric sp34 (ch-sp34) (antibody, V domains shown)
VH: EVQLVESGGGLVQPKGSLKLSCAASGFTFNTYAMNWVRQAPGKGLEWVARIRSKYNNYATYYADSVKDRFTISRDDSQSILYLQMNNLKTEDTAMYYCVRHGNFGNSYVSWFAYWGQGTLVTVSS
VL: QAVVTQESALTTSPGETVTLTCRSSTGAVTTSNYANWVQEKPDHLFTGLIGGTNKRAPGVPARFSGSLIGDKAALTITGAQTEDEAIYFCALWYSNLWVFGGGTKLTVL
[14]
  EC50 (read off the curve): ~0.4 µg/mL
[7]
  EC50 (read off the curve): ~0.3 µg/mL
[12]
  EC50: 1.9 nM
CD3ε (SPR analyte) [15]
  Kd: 2.3 nM
  koff: 0.000496 s⁻¹
  kon: 216000 M⁻¹ s⁻¹
[16]
  EC50: 2.49 nM
CD3ε (SPR analyte) [17]
  Kd: 2.3 nM
  koff: 0.000496 s⁻¹
  kon: 216000 M⁻¹ s⁻¹

B5: humanized sp34 BG53P (antibody, V domains shown)
VH: B4 VH with K15G, K19R, S77A, Q78K, I80S, N87S, K89R, T90A
VL: QAVVTQSPATLSVSPGERATLSCRSSTGAVTTSNYANWVQEKPGQLFTGLIGGTNKRAPGIPARFSGSLSGDEATLTISSLQSEDFAIYFCALWYSNLWVFGGGTKVEIK
notes: also called hu-sp34
[14]
  EC50 (read off the curve): ~0.3 µg/mL
[7]
  EC50 (read off the curve): ~0.3 µg/mL
[12]
  EC50: 1.8 nM
CD3ε (SPR analyte) [15]
  Kd: 4.58 nM
  koff: 0.000484 s⁻¹
  kon: 106000 M⁻¹ s⁻¹
[16]
  EC50: 1.72 nM
CD3ε (SPR analyte) [17]
  Kd: 2.65 nM
  koff: 0.000525 s⁻¹
  kon: 198000 M⁻¹ s⁻¹

B6: humanized sp34 BG56P (antibody, V domains shown)
VH: B4 VH with K15G, K19R, S77A, Q78K, S79N, I80S, N87S, K89R, T90A, M95V
VL: B5 VL with Q1E, A2I, V4L, E41Q, L46A, F47P, T48R, I88V, F90Y
[14]
  EC50 (read off the curve): ~0.7 µg/mL
[7]
  EC50 (read off the curve): ~0.7 µg/mL
[12]
  EC50: 4.69 nM
CD3ε (SPR analyte) [13]
  Kd: 7.06 nM
  koff: 0.000325 s⁻¹
  kon: 46000 M⁻¹ s⁻¹
CD3ε (SPR analyte) [15]
  Kd: 7.06 nM
  koff: 0.000325 s⁻¹
  kon: 46000 M⁻¹ s⁻¹
[16]
  EC50: 4.69 nM

B7: chimeric BG87P antibody (chBG87P) (antibody, V domains shown)
VH: QIQLQQSGPELVKPGASVKISCKASGYSFTDYHINWVKQRPGQGLEWIGWIYPGSGYTKYNEKFKVKATLTVDTSSSTAYMHLTSLTSEDSAVYFCARSGIYHYVSSYYFDHWGQGTTLTVSS
VL: DIVMTQSHTFMSTSVGDRVSITCKASQDVGTAVAWYQQKPGQSPKLLIYWASTRHTGVPDRFTGSGSGTDFTLTISNVQSEDLADYFCQQYSSYTFGGGTKLEIK
Human claudin 6 (CLDN6) [1]
  FACS-Ec50 ratio to BG87P: 1 ratio
Cyno CLDN6 [2]
  EC50 (read off the curve): ~7 nM
Cyno CLDN6 [3]
  EC50: 7.2 nM
Human claudin 6 (CLDN6) [18]
  EC50: 2.72 nM
  Emax ratio to BG87P: 1 ratio
  Top MFI Mean: 192000 MFI
Cyno CLDN6 [4]
  FACS Emax ratio to BG87P: 1 ratio
Human claudin 6 (CLDN6) [5]
  EC50 (read off the curve): ~10 nM
Human claudin 9 (CLDN9)
  binding result: no binding (tested: about 250 nM (log 2.4))
Human claudin 6 (CLDN6) [6]
  FACS Emax ratio to BG87P: 1 ratio
Human claudin 6 (CLDN6) [19]
  EC50: 8.33 nM
  Emax ratio to BG87P: 1 ratio
  Top MFI Mean: 125000 MFI
